Reference: publication PMC13544220, “Glycemic and bodyweight effects of GIPR coding variation reflect differences in surface expression and intrinsic functional impairment” (Science Advances, 2026)

Legend:
Assay type in all cases: cell-based, human
[1] = tested on: wild-type and variant SNAP-GIPR; test: cADDis cAMP imaging in AD293 cells, ensemble, expression-matched and per decile; settings: Fig S3F, cADDis, mean;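 further: Ensemble cells as % of IBMX/FSK response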
How it was run: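 AD293 cells reverse-transfected with wild-type or variant SNAP-GIPR plus cADDis Green Up sensor, variants run in parallel. After 24 h, surface receptor labelled with SNAP-Surface Alexa Fluor 647 (500 nM); single-cell cADDis fluorescence imaged at 37 °C in KRBH, 6 mM glucose, 0.1% BSA. Responses given ensemble, expression-matched by wild-type deciles, or per own decile.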

[2] = tested on: wild-type and variant SNAP-GIPR; test: Surface SNAP-GIPR expression (SNAP-tag labelling) in AD293 cells; settings: for AD293 Surface: Fig S3E, mean; for Surface SNAP-GIPR expression: sheet Fig 1C;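 on all read-outs here: scaled to the experimental average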
How it was run: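 Read-out: whole-cell fluorescence of surface-only SNAP label (Alexa Fluor 647, 500 nM, 10 min, RT), wide-field 20X, several FOVs per well. Flat-field corrected, phase-contrast masked, nontransfected-well signal subtracted; normalized to experiment mean or wild-type.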

[3] = tested on: wild-type and variant SNAP-GIPR; test: Constitutive and agonist-mediated internalization, reversible SNAP-tag labelling, AD293 cells; design: key to Internalisation, Vehicle / Internalisation, +GIP / Internalisation, GIP-only: % internalization: residual fluorescence after Mesna vs pre-Mesna; Surface expression: unit not given here; settings: Mean; for +GIP internalisation (100 nM) / GIP-specific internalisation (100 nM) / Constitutive internalisation (100 nM) / Surface expression: Fig 4E; for +GIP internalisation (100 nM) / GIP-specific internalisation (100 nM): GIP 100 nM; for Internalisation, +GIP / Internalisation, GIP-only / Internalisation, Vehicle: Fig S4C, AD293
How it was run: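 Percentage internalization is read as the fraction of specific SNAP fluorescence that survives Mesna stripping, compared with the image taken before Mesna. Wells are imaged in TNE buffer at pH 8.6 and again after 10 min.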

[4] = tested on: wild-type and variant SNAP-GIPR; test: Single-concentration GIP cAMP response by HTRF in AD293 cells; settings: Fig S3F, HTRF, mean;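 further: ratio to experiment-wide average response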
Procedure: All variants were tested in parallel on each occasion to control for transfection efficiency differences between experiments.

[5] = column repeated, paired with cAMP 100 nM

B1: WT (protein, UniProt P48546 22-466, looked up)
Gastric inhibitory …: RAETGSKGQTAGELYQRWERYRRECQETLAAAEPPSGLACNGSFDMYVCWDYAAPNATARASCPWYLPWHHHVAAGFVLRQCGSDGQWGLWRDHTQCENPEKNEAFLDQRLILERLQVMYTVGYSLSLATLLLALLILSLFRRLHCTRNYIHINLFTSFMLRAAAILSRDRLLPRPGPYLGDQALALWNQALAACRTAQIVTQYCVGANYTWLLVEGVYLHSLLVLVGGSEEGHFRYYLLLGWGAPALFVIPWVIVRYLYENTQCWERNEVKAIWWIIRTPILMTILINFLIFIRILGILLSKLRTRQMRCRDYRLRLARSTLTLVPLLGVHEVVFAPVTEEQARGALRFAKLGFEIFLSSFQGFLVSVLYCFINKEVQSEIRRGWHHCRLRRSLGEEQRQLPERAFRALPSGSGPGEVPTSRGLSSGTLPGPGNEASRELESYC
[1]
  AD293 100 pM cADDis: 34.2953
  AD293 100 nM cADDis: 38.14
[2]; [5]
  AD293 Surface: 1.574
[2]; paired with cAMP 100 pM
  AD293 Surface: 1.574
[2]; replicate 1
  Surface SNAP-GIPR expression: 1.413
[2]; replicate 2
  Surface SNAP-GIPR expression: 1.272
[2]; replicate 3
  Surface SNAP-GIPR expression: 1.88
[2]; replicate 4
  Surface SNAP-GIPR expression: 1.444
[2]; replicate 5
  Surface SNAP-GIPR expression: 1.509
[2]; replicate 6
  Surface SNAP-GIPR expression: 1.344
[2]; replicate 7
  Surface SNAP-GIPR expression: 1.891
[2]; replicate 8
  Surface SNAP-GIPR expression: 1.028
[2]; replicate 9
  Surface SNAP-GIPR expression: 1.591
[2]; replicate 10
  Surface SNAP-GIPR expression: 1.397
[2]; replicate 11
  Surface SNAP-GIPR expression: 1.544
[2]; replicate 12
  Surface SNAP-GIPR expression: 1.527
[2]; replicate 13
  Surface SNAP-GIPR expression: 1.575
[2]; replicate 14
  Surface SNAP-GIPR expression: 1.588
[2]; replicate 15
  Surface SNAP-GIPR expression: 1.562
[2]; replicate 16
  Surface SNAP-GIPR expression: 1.285
[2]; replicate 17
  Surface SNAP-GIPR expression: 1.371
[2]; replicate 18
  Surface SNAP-GIPR expression: 1.43
[2]; replicate 19
  Surface SNAP-GIPR expression: 1.701
[2]; replicate 20
  Surface SNAP-GIPR expression: 1.486
[2]; replicate 21
  Surface SNAP-GIPR expression: 1.598
[2]; replicate 22
  Surface SNAP-GIPR expression: 1.477
[2]; replicate 23
  Surface SNAP-GIPR expression: 1.449
[2]; replicate 24
  Surface SNAP-GIPR expression: 1.623
[2]; replicate 25
  Surface SNAP-GIPR expression: 1.241
[2]; replicate 26
  Surface SNAP-GIPR expression: 1.004
[2]; replicate 27
  Surface SNAP-GIPR expression: 2.237
[2]; replicate 28
  Surface SNAP-GIPR expression: 2.105
[2]; replicate 29
  Surface SNAP-GIPR expression: 1.748
[2]; replicate 30
  Surface SNAP-GIPR expression: 1.831
[2]; replicate 31
  Surface SNAP-GIPR expression: 1.807
[2]; replicate 32
  Surface SNAP-GIPR expression: 1.314
[2]; replicate 33
  Surface SNAP-GIPR expression: 1.406
[2]; replicate 34
  Surface SNAP-GIPR expression: 1.597
[2]; replicate 35
  Surface SNAP-GIPR expression: 1.369
[2]; replicate 36
  Surface SNAP-GIPR expression: 1.658
[2]; replicate 37
  Surface SNAP-GIPR expression: 2.437
[2]; replicate 38
  Surface SNAP-GIPR expression: 2.543
[2]; replicate 39
  Surface SNAP-GIPR expression: 1.55
[2]; replicate 40
  Surface SNAP-GIPR expression: 1.34
[2]; replicate 41
  Surface SNAP-GIPR expression: 1.346
[3]
  +GIP internalisation (100 nM): 0.9729
  GIP-specific internalisation (100 nM): 0.2717
  Constitutive internalisation (100 nM): 0.7012
  Surface expression: 1.75
  Internalisation, +GIP: 55.4256
  Internalisation, GIP-only: 15.538
  Internalisation, Vehicle: 39.8877
[4]
  AD293 100 pM HTRF: 1.584
  AD293 100 nM HTRF: 1.495

B2: E354Q (protein)
chain: RAETGSKGQTAGELYQRWERYRRECQETLAAAEPPSGLACNGSFDMYVCWDYAAPNATARASCPWYLPWHHHVAAGFVLRQCGSDGQWGLWRDHTQCENPEKNEAFLDQRLILERLQVMYTVGYSLSLATLLLALLILSLFRRLHCTRNYIHINLFTSFMLRAAAILSRDRLLPRPGPYLGDQALALWNQALAACRTAQIVTQYCVGANYTWLLVEGVYLHSLLVLVGGSEEGHFRYYLLLGWGAPALFVIPWVIVRYLYENTQCWERNEVKAIWWIIRTPILMTILINFLIFIRILGILLSKLRTRQMRCRDYRLRLARSTLTLVPLLGVHQVVFAPVTEEQARGALRFAKLGFEIFLSSFQGFLVSVLYCFINKEVQSEIRRGWHHCRLRRSLGEEQRQLPERAFRALPSGSGPGEVPTSRGLSSGTLPGPGNEASRELESYC
[1]
  AD293 100 pM cADDis: 41.2353
  AD293 100 nM cADDis: 37.94
[2]; [5]
  AD293 Surface: 0.7482
[2]; paired with cAMP 100 pM
  AD293 Surface: 0.7482
[2]; replicate 1
  Surface SNAP-GIPR expression: 0.8065
[2]; replicate 2
  Surface SNAP-GIPR expression: 0.9885
[2]; replicate 3
  Surface SNAP-GIPR expression: 0.6105
[2]; replicate 4
  Surface SNAP-GIPR expression: 0.8642
[2]; replicate 5
  Surface SNAP-GIPR expression: 0.9388
[2]; replicate 6
  Surface SNAP-GIPR expression: 0.763
[2]; replicate 7
  Surface SNAP-GIPR expression: 0.751
[2]; replicate 8
  Surface SNAP-GIPR expression: 0.7772
[2]; replicate 9
  Surface SNAP-GIPR expression: 0.3807
[2]; replicate 10
  Surface SNAP-GIPR expression: 0.8583
[2]; replicate 11
  Surface SNAP-GIPR expression: 0.7525
[2]; replicate 12
  Surface SNAP-GIPR expression: 0.8043
[2]; replicate 13
  Surface SNAP-GIPR expression: 1.071
[2]; replicate 14
  Surface SNAP-GIPR expression: 0.6911
[2]; replicate 15
  Surface SNAP-GIPR expression: 0.7162
[2]; replicate 16
  Surface SNAP-GIPR expression: 0.6632
[2]; replicate 17
  Surface SNAP-GIPR expression: 0.6439
[2]; replicate 18
  Surface SNAP-GIPR expression: 0.5804
[2]; replicate 19
  Surface SNAP-GIPR expression: 0.6207
[2]; replicate 20
  Surface SNAP-GIPR expression: 0.742
[2]; replicate 21
  Surface SNAP-GIPR expression: 0.7392
[2]; replicate 22
  Surface SNAP-GIPR expression: 0.5026
[2]; replicate 23
  Surface SNAP-GIPR expression: 0.762
[2]; replicate 24
  Surface SNAP-GIPR expression: 0.7507
[2]; replicate 25
  Surface SNAP-GIPR expression: 0.8473
[2]; replicate 26
  Surface SNAP-GIPR expression: 0.7374
[2]; replicate 27
  Surface SNAP-GIPR expression: 0.7405
[2]; replicate 28
  Surface SNAP-GIPR expression: 0.7355
[2]; replicate 29
  Surface SNAP-GIPR expression: 0.6896
[2]; replicate 30
  Surface SNAP-GIPR expression: 1.162
[2]; replicate 31
  Surface SNAP-GIPR expression: 0.7254
[2]; replicate 32
  Surface SNAP-GIPR expression: 0.7792
[2]; replicate 33
  Surface SNAP-GIPR expression: 0.8108
[2]; replicate 34
  Surface SNAP-GIPR expression: 0.9519
[2]; replicate 35
  Surface SNAP-GIPR expression: 0.6078
[2]; replicate 36
  Surface SNAP-GIPR expression: 0.6218
[2]; replicate 37
  Surface SNAP-GIPR expression: 0.8918
[2]; replicate 38
  Surface SNAP-GIPR expression: 0.4883
[2]; replicate 39
  Surface SNAP-GIPR expression: 0.768
[2]; replicate 40
  Surface SNAP-GIPR expression: 0.6348
[2]; replicate 41
  Surface SNAP-GIPR expression: 0.707
[3]
  +GIP internalisation (100 nM): 0.4635
  GIP-specific internalisation (100 nM): 0.1217
  Constitutive internalisation (100 nM): 0.3419
  Surface expression: 0.6766
  Internalisation, +GIP: 68.6221
  Internalisation, GIP-only: 17.9918
  Internalisation, Vehicle: 50.6302
[4]
  AD293 100 pM HTRF: 4.703
  AD293 100 nM HTRF: 1.4229
